Assay results from patent US20190309044A1, “POLYPEPTIDES AND USES THEREOF AS A DRUG FOR TREATMENT OF AUTOIMMUNE DISORDERS” (Compugen Ltd., priority 2017, published 2019).
Entries after “also recorded” stand apart in the source; their conditions may differ.

Legend:
male DBA/1OlaHsd mice = assay: CIA, early stage treatment from day 18; format: in vivo, mouse; conditions: 3.3 mg/kg
Source text: The aim of this study was to estimate the effect of C1ORF32-P8-V1-ECD-mFc (SEQ ID NO:42) on disease development in a type II Collagen induced arthritis (CIA) mouse model upon administration at early stage of disease; i.e., when specific and predictive markers for RA development are present in the serum, but before onset of clinical symptoms.
In the CIA model, arthritis is induced by immunization with type II collagen in CFA on day 1 which is followed by boosting with type II collagen in CFA on day 21. Antibodies against both CII and cyclic citrullinated peptide (CCPs) appear early after immunization, before joint swelling is observed.
To evaluate the effect of early stage treatment with C1ORF32-P8-V1-ECD-mFc (SEQ ID NO:42) on disease development treatment started on day 18 and was given IP injection, Q2D to mice from day 18 until day 32.
Male DBA/101aHsd mice weighing 16-25 grams (mean 22 g) on day 18 of the study were obtained from Harlan, Inc., Indianapolis, Ind. Mice (10/group) were anaesthetized with Isoflurane, shaved at the base of the tail, and injected intradermally with 150 μl of Freund's Complete Adjuvant (Sigma) containing bovine type II collagen (Elastin Products, Owensville, Mo.) (2 mg/ml) at the base of the tail on day 0 and again on day 21. On study day 18, mice were randomized by body weight into treatment groups. […]

SJL/J mice = assay: Adoptive transfer R-EAE, clinical score; format: in vivo, mouse
Procedure: Female SJL/J mice were primed with 50 μg of PLP139-151/CFA according to the standard laboratory protocol on day 0. On day 8 post disease induction, the inguinal lymph nodes were collected and the total lymph node cells were re-activated in culture in the presence of PLP139-151 for 3 days. At the end of culture, cells were collected and transferred into naive recipient SJL/J mice.
a. Mice were shaved (about a 1 in.×1 in, square on the back between the hind flanks) and injected with CFA/PLP139-151 emulsion at 100 μl per mouse s.c., divided between three spots on the back and flanks. Peptide and final dose given per mouse: 50 μg of PLP139-151 peptide on day 0.
b. On day 8 post priming with PLP139-151/CFA, the draining inguinal lymph nodes were collected, and single cell suspensions were prepared. Total lymph node cells were cultured at a density of 8×10^6 cells per ml in the HL-1 medium plus PLP139-151 peptide (20 μg/ml) in T75 flasks.
c. After 3 days of culture, the PLP139-151 reactivated cells were collected and counted using an hemacytometer. The number of total viable cells and the number of blast cells was determined. […]
f. Mice were scored on the indicated days, on a 0-5 disease score scale per standard laboratory protocol: 0, no abnormality; 1, limp tail; 2, limp tail and hind limb weakness; 3, hind limb paralysis; 4, hind limb paralysis and forelimb weakness; and 5, moribund. […]

B1: C1ORF32 ECD-Fc (SEQ ID NO:42): human-mouse fusion protein: human C1ORF32 ECD fused to mouse immunoglobulin Fc (SEQ ID NO:42) (protein)
chain: LQVTVPDKKKVAMLFQPTVLRCHFSTSSHQPAVVQWKFKSYCQDRMGESLGMSSTRAQSLSKRNLEWDPYLDCLDSRRTVRVVASKQGSTVTLGDFYRGREITIVHDADLQIGKLMWGDSGLYYCIITTPDDLEGKNEDSVELLVLGRTGLLADLLPSFAVEIMGSENLYFQGSGEPRGPTIKPCPPCKCPAPNLLGGPSVFIFPPKIKDVLMISLSPIVTCVVVDVSEDDPDVQISWFVNNVEVHTAQTQTHREDYNSTLRVVSALPIQHQDWMSGKEFKCKVNNKDLPAPIERTISKPKGSVRAPQVYVLPPPEEEMTKKQVTLTCMVTDFMPEDIYVEWTNNGKTELNYKNTEPVLDSDGSYFMYSKLRVEKKNWVERNSYSCSVVHEGLHNHHTTKSFSRTPGK
modifications: Fusion protein human C1ORF32-ECD fused to mouse IgG2a Fc
effect of lower dose (male DBA/1OlaHsd mice): No effect | disease induction / development (SJL/J mice; 100 ug/dose i.p. 3x/wk 2 wks from time of cell transfer): complete abolishment of disease induction; also recorded: abolished disease development | clinical signs of the disease (SJL/J mice; 100 ug/mouse i.p. 3x/wk 2 wks from onset of disease remission): robust inhibition of clinical signs
